{"source": "paper PMC9942874", "about": "(Immunity, 2023)", "key": {"[1]": {"target": "native Pfs230 (gametocyte extract) (Plasmodium falciparum NF54 (3D7 is its …, UniProt P68874))", "sequence (P68874 21-3135)": "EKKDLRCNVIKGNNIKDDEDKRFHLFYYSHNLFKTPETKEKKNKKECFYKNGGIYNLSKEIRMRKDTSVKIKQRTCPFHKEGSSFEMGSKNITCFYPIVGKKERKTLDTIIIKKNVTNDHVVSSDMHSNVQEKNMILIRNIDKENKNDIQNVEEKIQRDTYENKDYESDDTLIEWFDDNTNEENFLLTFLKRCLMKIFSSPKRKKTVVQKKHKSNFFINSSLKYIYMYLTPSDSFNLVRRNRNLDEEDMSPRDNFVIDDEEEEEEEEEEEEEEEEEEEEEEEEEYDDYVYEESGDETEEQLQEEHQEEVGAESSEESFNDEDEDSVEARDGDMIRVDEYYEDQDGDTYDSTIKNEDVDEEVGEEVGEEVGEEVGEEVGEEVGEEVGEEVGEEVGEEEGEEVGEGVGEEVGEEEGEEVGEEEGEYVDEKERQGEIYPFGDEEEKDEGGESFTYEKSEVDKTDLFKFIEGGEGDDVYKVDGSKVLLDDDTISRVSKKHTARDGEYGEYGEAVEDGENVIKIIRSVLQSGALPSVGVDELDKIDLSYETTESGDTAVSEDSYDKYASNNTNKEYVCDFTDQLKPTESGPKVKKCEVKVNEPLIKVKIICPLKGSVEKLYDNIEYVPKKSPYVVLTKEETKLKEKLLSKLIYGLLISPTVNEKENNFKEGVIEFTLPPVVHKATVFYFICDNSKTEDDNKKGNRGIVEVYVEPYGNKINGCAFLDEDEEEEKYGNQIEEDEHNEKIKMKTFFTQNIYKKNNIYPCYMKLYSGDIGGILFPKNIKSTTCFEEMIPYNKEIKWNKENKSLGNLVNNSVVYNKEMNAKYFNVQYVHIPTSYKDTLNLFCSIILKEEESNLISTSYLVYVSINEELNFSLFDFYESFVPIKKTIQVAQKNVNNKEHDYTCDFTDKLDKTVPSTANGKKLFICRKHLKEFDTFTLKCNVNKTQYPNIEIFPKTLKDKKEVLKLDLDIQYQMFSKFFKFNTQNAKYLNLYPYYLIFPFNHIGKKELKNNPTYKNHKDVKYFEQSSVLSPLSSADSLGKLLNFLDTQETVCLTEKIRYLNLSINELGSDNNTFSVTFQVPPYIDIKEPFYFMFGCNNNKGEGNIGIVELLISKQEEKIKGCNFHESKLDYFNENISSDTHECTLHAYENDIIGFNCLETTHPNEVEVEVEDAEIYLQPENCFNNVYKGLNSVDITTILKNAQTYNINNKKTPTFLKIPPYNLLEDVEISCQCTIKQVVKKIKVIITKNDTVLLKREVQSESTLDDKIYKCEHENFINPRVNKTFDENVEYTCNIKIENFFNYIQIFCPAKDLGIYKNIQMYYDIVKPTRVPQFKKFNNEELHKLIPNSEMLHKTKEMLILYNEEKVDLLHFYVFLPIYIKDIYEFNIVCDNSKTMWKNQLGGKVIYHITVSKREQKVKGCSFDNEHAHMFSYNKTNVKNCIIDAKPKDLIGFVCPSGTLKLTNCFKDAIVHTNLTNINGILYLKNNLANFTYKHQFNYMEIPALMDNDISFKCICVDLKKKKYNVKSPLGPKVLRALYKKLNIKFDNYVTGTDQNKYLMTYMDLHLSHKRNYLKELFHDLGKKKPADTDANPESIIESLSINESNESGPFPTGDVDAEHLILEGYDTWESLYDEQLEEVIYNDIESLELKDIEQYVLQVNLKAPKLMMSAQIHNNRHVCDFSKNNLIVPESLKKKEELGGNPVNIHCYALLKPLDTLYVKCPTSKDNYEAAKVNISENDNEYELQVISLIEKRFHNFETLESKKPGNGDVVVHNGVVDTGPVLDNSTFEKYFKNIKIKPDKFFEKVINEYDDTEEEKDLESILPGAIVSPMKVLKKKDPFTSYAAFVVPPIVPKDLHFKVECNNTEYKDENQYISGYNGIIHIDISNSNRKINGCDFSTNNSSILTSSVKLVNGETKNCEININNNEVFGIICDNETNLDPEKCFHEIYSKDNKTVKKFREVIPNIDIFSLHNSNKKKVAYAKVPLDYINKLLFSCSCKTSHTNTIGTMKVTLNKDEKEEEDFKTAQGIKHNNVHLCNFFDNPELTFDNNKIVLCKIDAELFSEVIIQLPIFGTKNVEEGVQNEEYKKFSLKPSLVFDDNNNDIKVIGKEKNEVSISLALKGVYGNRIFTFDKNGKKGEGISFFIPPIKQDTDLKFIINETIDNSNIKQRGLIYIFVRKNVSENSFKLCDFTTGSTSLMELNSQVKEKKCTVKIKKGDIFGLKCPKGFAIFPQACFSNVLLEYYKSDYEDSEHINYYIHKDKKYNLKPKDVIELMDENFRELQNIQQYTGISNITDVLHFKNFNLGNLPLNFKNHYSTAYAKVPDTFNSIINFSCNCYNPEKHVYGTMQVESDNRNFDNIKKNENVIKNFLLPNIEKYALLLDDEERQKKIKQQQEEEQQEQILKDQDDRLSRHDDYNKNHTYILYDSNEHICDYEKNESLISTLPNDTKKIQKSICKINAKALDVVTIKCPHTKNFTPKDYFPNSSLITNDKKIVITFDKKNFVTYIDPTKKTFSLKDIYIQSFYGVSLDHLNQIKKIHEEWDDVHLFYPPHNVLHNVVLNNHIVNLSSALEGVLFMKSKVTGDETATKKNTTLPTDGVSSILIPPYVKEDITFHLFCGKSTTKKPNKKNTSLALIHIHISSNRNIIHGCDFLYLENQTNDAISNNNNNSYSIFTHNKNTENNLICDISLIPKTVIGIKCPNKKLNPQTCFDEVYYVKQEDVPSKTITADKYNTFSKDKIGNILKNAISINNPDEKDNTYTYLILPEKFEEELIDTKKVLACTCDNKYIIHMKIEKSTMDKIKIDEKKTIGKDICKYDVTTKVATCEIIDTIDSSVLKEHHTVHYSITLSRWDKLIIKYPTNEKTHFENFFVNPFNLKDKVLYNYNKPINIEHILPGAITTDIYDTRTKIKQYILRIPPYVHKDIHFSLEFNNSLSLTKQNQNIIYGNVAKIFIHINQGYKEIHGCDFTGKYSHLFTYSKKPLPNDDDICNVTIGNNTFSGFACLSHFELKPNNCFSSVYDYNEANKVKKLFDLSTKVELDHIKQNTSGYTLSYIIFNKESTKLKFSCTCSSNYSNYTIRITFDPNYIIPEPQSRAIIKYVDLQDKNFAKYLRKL", "experiment": "[…]; 5 μg/ml mAb in PBST; […]", "conditions": "one partner purified"}, "[2]": {"target": "T1, Pfs230 C1 (Plasmodium falciparum 3D7 (clone of …, UniProt P68874))", "T1 sequence (P68874 443-731)": "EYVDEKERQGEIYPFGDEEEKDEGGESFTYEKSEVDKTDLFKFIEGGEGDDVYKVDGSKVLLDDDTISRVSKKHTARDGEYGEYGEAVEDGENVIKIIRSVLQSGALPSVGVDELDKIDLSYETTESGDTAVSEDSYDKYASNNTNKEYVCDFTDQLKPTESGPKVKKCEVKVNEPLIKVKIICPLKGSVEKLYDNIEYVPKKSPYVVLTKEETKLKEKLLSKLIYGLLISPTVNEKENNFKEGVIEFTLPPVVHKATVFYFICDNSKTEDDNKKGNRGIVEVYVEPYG", "experiment": "ELISA", "conditions": "both partners purified"}, "[3]": {"target": "T1, Pfs230 C1", "experiment": "SPR", "conditions": "both partners purified"}, "[4]": {"target": "Pfs230 Pro (Plasmodium falciparum 3D7 (clone of …, UniProt P68874))", "sequence (P68874 443-590)": "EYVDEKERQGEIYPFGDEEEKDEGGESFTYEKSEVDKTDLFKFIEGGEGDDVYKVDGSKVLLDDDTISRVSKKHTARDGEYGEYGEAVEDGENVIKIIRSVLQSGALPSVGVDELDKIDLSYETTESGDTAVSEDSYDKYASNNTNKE", "experiment": "ELISA", "conditions": "both partners purified"}}}
{"binder": "RUPA-39 (antibody, V domains shown, also called RUPA-39 (IgG1)) VH: DVQLVESGGGLVKPGGSLRLSCAASGFTFSSYTMNWVRQAPGKGLEWVSSISTNIRYIYYADSVKGRFTISRDNAKNSLFLQMDSLRAEDTAVYYCATIAGPLSLKGDFYFDSWGQGTLVTVSS VL: EIVMTQSPATLSVSPGERATLSCRASQSVSSSLAWYQQKPGQAPRLLIHGASTRATGIPTRFSGSGSGTEFTLTISSLQSEDFAVYYCQQYANWPPWTFGQGTKVESK", "values": [{"measurement": "binding result", "setting": "[1]", "result": "binds"}, {"measurement": "binding result", "setting": "[2]", "result": "binds"}]}
{"binder": "RUPA-55 (antibody, V domains shown, also called RUPA-55 (IgG1)) VH: DVQLVESGGGLVKPGGSLRLSCAASGFTFNSYTMNWVRQAPGKGLEWVSSISTNIRYIYYADSVKGRFTISRDNAKNSLFLQMDSLRAEDTAVYYCATIAGPLSLKGDFFFDSWGQGTLVTVSP VL: EIVMTQSPATLSVSPGERATLSCRASQSVSSSLAWYQQKPGQAPRLLIHGASTRATGIPTRFSGSGSGTEFTLTISSLQSEDFAVYYCQQYANWPPWTFGQGTKVESK", "values": [{"measurement": "binding result", "setting": "[1]", "result": "binds"}, {"measurement": "binding result", "setting": "[2]", "result": "binds"}]}
{"binder": "15C5 (IgG1) (antibody, V domains shown, also called humanized analog of the 15C5 mouse mAb) VH: DVQLQESGPGLVNPSQSLSLTCSVTGYSITSDYYWNWIRQFPGNKLEWMGYITYDGTNNYNPFFKNRISITRDTSQNQFFLKLNSVTTEDTATYYCARDGRYWYFDVWGAGTTVTVSS VL: QIVLTQSPTLMSAFPGEKVTMTCSASSSVSYMYWYQQKPGSSPKPWIYLTSNLASGVPARFSGSGSGTSYSLTISSMEAEDAATYYCQQWNNSPPTFGAGTKLELK", "values": [{"measurement": "binding result", "setting": "[3]", "result": "binds"}]}
{"binder": "RUPA-135 (antibody, V domains shown, also called RUPA-135 (IgG1)) VH: EVQLVDSGGGLVQPGGSLKLTCATSGFFFSGSAMHWVRQASGKGLEWVGRIRSKGNNYATAYAASVKGRFTISRDDSKNTAYLQMDSLKTEDTAVYYCSSRNSKVPDYWGQGTLVTVSS VL: QSVLTQPPSASGTPGQRVTIFCSGSSSNIGSNFVYWYQQLPGAAPKLLIYRNHQRPSGVPDRLSGSKSGTSASLAISGLRSEDEADYYCAAWDDSLNVQVFGGGTKVTVL", "values": [{"measurement": "binding result", "setting": "[4]", "result": "binds"}, {"measurement": "binding result", "setting": "[2]", "result": "binds"}]}
{"binder": "RUPA-136 (antibody, V domains shown, also called RUPA-136 (IgG1)) VH: EVQLVESGGGLVRPGGSLRLSCAASGFNFSAYGMNWVRQAPGRGLEWISYISHNTSIIHYADSVKGRFTISRDNGANSLYLQLNTLRDGDTAVYYCVRDCATLIGGRLPICQYFFDYWGQGALVTVSS VL: SYELTQPSSVSVSLGQTASITCSGDMLTGKYVRWFQQKPGQAPILVIYKDRKRPSGIPDRFSGSSSGTTVTLIINGARIEDEADYYCYSAAARKRVFGGGTKLTVL", "values": [{"measurement": "binding result", "setting": "[4]", "result": "binds"}, {"measurement": "binding result", "setting": "[2]", "result": "binds"}]}
{"binder": "RUPA-32 (antibody, V domains shown, also called RUPA-32 (IgG1)) VH: EVQLVESGGGLVKPGGSLRLSCAASGFAFSTYAMSWVRQAPGKGLEWVSSISESSSYTYYTDSVKGRFTISRDNAKKSLFLHMNSLRAEDTAVYYCARSDGLSMIAAPFDYWGQGARVTVSS VL: EIVLTQSPATLSLSPGERATLSCRTSQSLSISLVWYQQKPGQAPRLLISDASNRAPGIPARFSASGSGTDFTLTISSLEPEDFAVYYCQQRSNWPPITFGQGTRLEMK", "values": [{"measurement": "binding result", "setting": "[1]", "result": "binds"}, {"measurement": "binding result", "setting": "[2]", "result": "binds"}]}
{"binder": "RUPA-126 (antibody, V domains shown, also called RUPA-126 (IgG1)) VH: QVQLVQSGAEVKKPGASVTVSCKASGYTFTDYYLHWVRQAPGHGLEWMGWINPNSGITEYAQKFQGRVTVTRDTSISTIYMDLSRLRSDDTAIYYCVRRERGSPYTLFDYWGQGTLVIVSS VL: QSVLTQPPSASGTPGQRVTISCSGGDSNIGTNYGYWYQQFPGTAPKLLIYWNNRRPSGVPDRFSGSKSGTSVFLAISGLRSEDEADYYCAAWDDSLSAPVFGGGTKLTVI", "values": [{"measurement": "binding result", "setting": "[1]", "result": "binds"}, {"measurement": "binding result", "setting": "[2]", "result": "binds"}]}
{"binder": "RUPA-133 (antibody, V domains shown, also called RUPA-133 (IgG1)) VH: QVQLVQSGAEVKKPGASVNVSCMPSGYTFSDYFLHWVRQAPGQGLEWMGWINPNSGLTKYAQKFQGRVTMTSDTSISTVYLDLSRLRSDDTAIYFCVRRERGSPYTLFDYWGQGTLVTVSS VL: QSVLTQPPSASGTPGQRVTISCSGGASNIGTNYVYWYQQLPGTAPKLLIYWNNRRPSGVPDRFSGSKSGTSVSLAISGLRSEDEADYYCAAWDDSLSGPVFGGGTKLTVI", "values": [{"measurement": "binding result", "setting": "[1]", "result": "binds"}, {"measurement": "binding result", "setting": "[2]", "result": "binds"}]}
{"binder": "RUPA-103 (antibody, V domains shown, also called RUPA-103 (IgG1)) VH: EVQLVESGGGLVKPGGSLRLSCAASGFTFSSYSMNWVRQAPGKGLEWVSSISSGSSYKYYSDSVKGRFTISRDNAKNSLYLQMNTLRAEDTAVYYCARAPEPGLLWFGEWGDYWGQGTLVTVSS VL: EIVLTQSPVTLSLSPGERATLSCRASQSISSSLAWYQQKPGQAPRLLIYDASNRATGIPARFSGSGSGTDFTLTISSLEPEDFAVYYCQQRSIWPPITFGQGTRLEIQ", "values": [{"measurement": "binding result", "setting": "[1]", "result": "binds"}, {"measurement": "binding result", "setting": "[2]", "result": "binds"}]}
{"binder": "RUPA-33 (antibody, V domains shown, also called RUPA-33 (IgG1)) VH: EVQLVESGGGLVQPGRSLRLSCAASGFTFDDYAVHWVRQVPGKGLEWVSGISWNSATLAYADSVTGRFTISRDNARNSLYLQMNSLRIEDTALYYCARALPERTYGHRAFDYWGRGTQVTVSS VL: QSALTQPRSVSGSPGQSVTISCTGTSSDVGYFTFVSWYQQHPGEVPKLIIYDVTKRPSGVPDRFSGSKSGNTASLTISGLQSDDEADYYCCSYAGTYHIRFGGGTKLTVL", "values": [{"measurement": "binding result", "setting": "[1]", "result": "binds"}, {"measurement": "binding result", "setting": "[2]", "result": "binds"}]}
{"binder": "RUPA-115 (antibody, V domains shown, also called RUPA-115 (IgG1)) VH: EVQLVESGGGLVQPGRSLRLFCAASGFNFDDYAMHWVRQAPGKGLEWVSGISWNSGTLAYADFVMGRFTISRDTAKNSLYLQMNSLRAEDTAFYYCAKDLKKYISSSLDYWGQGTLVTVFS VL: QSALTQPRSVSGSPGQSVTISCTGTSSDVGAYNFVSWFQHHPGKAPKLMIYDVTKRPSGVPDRFSASKSGNTASLTISGLQAEDEAEYYCCSYAGTYHVVFGGGTKLTVL", "values": [{"measurement": "binding result", "setting": "[1]", "result": "binds"}, {"measurement": "binding result", "setting": "[2]", "result": "binds"}]}
{"binder": "RUPA-73 (antibody, V domains shown, also called RUPA-73 (IgG1)) VH: EPQLVESGGGLVQPGRSLRLSCAGSGFTFGDYAMHWVRQAPGKGLEWVSGISWNSGTLAYAVFVEGRFTISRDNAKNSLYLQMNSLRPEDTAFYYCAKDVKNYVSGGCSDWGQGSLVTVSS VL: QSALTQPRSVSGSPGQSVTISCTGTSSDVGGYEFVSWYQQYPGKAPKLIIYDVTKRPSGVPAHFSASKSGNTASLTISGLQAEDEADYYCCSYAGTYHVLFGGGTKLTVL", "values": [{"measurement": "binding result", "setting": "[1]", "result": "binds"}, {"measurement": "binding result", "setting": "[2]", "result": "binds"}]}
{"binder": "RUPA-38 (antibody, V domains shown, also called RUPA-38 (IgG1)) VH: EVQLVESGGGLVQPGRSLRLSCAVSGFNFEDYAMHWVRQTPGKGLEWVSGISWNSGTLAYGDFVQGRFIISRDNAKNFLYLQMNSLRPEDTALYYCANDRMRWIQVPHYWGQGTLVTVSS VL: LSALTQPRSVSGSPGQSVTISCTGTNDDVGEYNYVSWYQQHPGKAPKLMIYDVTKRPSGVPDRFSASKSGNTASLTISGLQAEDEANYYCCSYAGTYHMVFGGGTKLTVL", "values": [{"measurement": "binding result", "setting": "[1]", "result": "binds"}, {"measurement": "binding result", "setting": "[2]", "result": "binds"}]}
{"binder": "RUPA-96 (antibody, V domains shown, also called RUPA-96 (IgG1)) VH: EVQLVESGGGLVQPGRSLRLSCAVSGFTFDNYAMHWVRQAPGKGLEWVSGISWNSGTLAYADFVMGRFTISRDTAKNSLYLQLNSLRTEDTALYYCAKDIKMYISSSLDYWGQGTLVTVFS VL: QSALTQPRSVSGSPGQSVTVSCTGTNSDVGAYNFVSWFQHHPGKAPKLIIYDITKRPSGVPDRFSASKSGNTASLTISGLQAEDEAEYYCCSYAGTYHVVFGGGTKLTVL", "values": [{"measurement": "binding result", "setting": "[1]", "result": "binds"}, {"measurement": "binding result", "setting": "[2]", "result": "binds"}]}
{"binder": "RUPA-62 (antibody, V domains shown, also called RUPA-62 (IgG1)) VH: EVQLVESGGGLVQPGRSLRLSCAASGFTFDDYAMHWVRQAPGKGLEWVSGISWNSGSIGYADSVNGRFTISRDNAKKSLYLQMNSLRPEDTALYYCAKDTHEYSSSPGDYWGQGTLVTVSS VL: QSALTQPRSVSGSPGQSVTISCTGTSSDVGGYTFVSWSQQHPGKAPKLMIYDVSKRPSGVPDRFSGSKSGNTASLTISGLQAEDEADYYCCSYAGTYHVVFGGGTKLTVL", "values": [{"measurement": "binding result", "setting": "[1]", "result": "binds"}, {"measurement": "binding result", "setting": "[2]", "result": "binds"}]}
{"binder": "RUPA-137 (antibody, V domains shown, also called RUPA-137 (IgG1)) VH: QITLKESGPALVKPTQTLTLTCTFSGFSLTSSGVGVVWVRQPPEKALEWLALIYWDDDRRYSPSLETRLNISKDTSKNQVVLTMTNMDPLDTATYFCAHSRASGWYGYWGQGTLVTVSS VL: QSVLTQPPSASGTPGQRVTISCSGSRSNLGTNFVYWYQQLPGTAPKLLIYKNYQRPSGVPDRFSGSKSGTSASLSISGLRSEDEADYYCAAWDDNLNGFYVFGTGTKLTVV", "values": [{"measurement": "binding result", "setting": "[4]", "result": "binds"}, {"measurement": "binding result", "setting": "[2]", "result": "binds"}]}
